± gives the uncertainty stated by the source.
Test: self-splicing fitness, log relative to wild type (ln ratio); higher = more splicing; Tetrahymena group I intron in knt gene, E. coli kanamycin selection, DiMSum; sequences stand for … in CUCUCU…GGAGGGAAAAGUUAUCAGGCAUGCACCUGGUAGCUAGUCUUUAAACCAAUAGAUUGCAUCGGUUUAAAAGGCAAGACCGUCAAAUUGCGGGAAAGGGGUCAACAGCCGUUCAGUACCAAGUCUCAGGGGAAACUUUGAGAUGGCCUUGCAAAGGGUAUGGUAAUAAGCUGACGGACAUGGUCCUAACCACGCAGCCAAGUCCUAAGUCAACAGAUCUUCUGUUGAUAUGGAUGCAGUUCACAGACUAAAUGUCGGUCGGGGAAGAUGUAUUCUUCUCAUAAGAUAUAGUCGGACCUCUCCUUAAUGGGAGCUAGCGGAUGAAGUGAUGCAACACUGGAGCCGCUGGGAACUAAUUUGUAUGCGAAAGUAUAUUGAUUAGUUUUGGAGUACUCGUGGUCG
Outline: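 Fitness was computed with DiMSum as the error-weighted combination of replicate fold changes, kanamycin versus none, each normalised to wild type. The library randomised all eight intron nucleotides of the P1ex region, with the intron placed in the knt kanamycin-resistance gene on pET-22b(+) in E. coli BL21(DE3). Six replicate transformations were grown overnight at 37°C or 30°C on LB agar with or without 25 μg/mL kanamycin, plus 100 μg/mL carbenicillin, 50 μM IPTG and 0.2% rhamnose. Pooled colonies were amplicon-sequenced on an Illumina HiSeq 2500.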

| Sequence | self-splicing fitness (ln) (30 °C) | self-splicing fitness (ln) (37 °C) |
| --- | --- | --- |
| UCAGAGCAAUAUUACGACAC | -2.63 ± 0.37 | -0.191 ± 0.45 |
| CAUCAGCAAUAUUACGCAUC | -1.34 ± 0.13 | -1.02 ± 0.15 |
| UAAGAGCAAUAUUACGCUAA | – | -1.77 ± 0.27 |
| GAGUAGCAAUAUUACGAUUC | -0.85 ± 0.18 | -0.0237 ± 0.24 |
| UCUGAGCAAUAUUACGCAGC | -2.75 ± 0.42 | – |
| ACAAAGCAAUAUUACGAAGU | -2.04 ± 0.12 | -2.06 ± 0.18 |
| CACUAGCAAUAUUACGUCUC | -4.18 ± 0.26 | -2.43 ± 0.2 |
| UGCAAGCAAUAUUACGAACC | -1.15 ± 0.15 | -0.525 ± 0.17 |
| CUUUAGCAAUAUUACGGUUA | -3.31 ± 0.28 | -3.19 ± 0.37 |
| CUCGAGCAAUAUUACGACUU | -3.19 ± 0.19 | -1.73 ± 0.23 |
| GACAAGCAAUAUUACGGAGA | -2.59 ± 0.18 | -1.98 ± 0.14 |
| GCAUAGCAAUAUUACGUCUA | -0.451 ± 0.14 | -0.993 ± 0.13 |
| AAUCAGCAAUAUUACGCUGA | -2.61 ± 0.17 | -1.76 ± 0.24 |
| ACGCAGCAAUAUUACGUAAG | -0.0743 ± 0.099 | -1.27 ± 0.13 |
| CCGGAGCAAUAUUACGUCGC | -2.63 ± 0.32 | -2.43 ± 0.41 |
| AAGUAGCAAUAUUACGAUCU | -0.032 ± 0.1 | 0.3 ± 0.13 |
| ACGAAGCAAUAUUACGCUAA | -1.22 ± 0.079 | -0.582 ± 0.083 |
| GCCAAGCAAUAUUACGAAGC | -2.7 ± 0.12 | -2.51 ± 0.17 |
| CAAGAGCAAUAUUACGUAUU | -3.55 ± 0.23 | -1.83 ± 0.19 |
| GCGAAGCAAUAUUACGGGCG | -1.84 ± 0.11 | -0.509 ± 0.13 |
| CGCAAGCAAUAUUACGGGUG | -1.59 ± 0.062 | -0.366 ± 0.08 |
| GUUGAGCAAUAUUACGCACU | -1.26 ± 0.15 | -0.723 ± 0.2 |
| CGGGAGCAAUAUUACGGCAU | – | -1.8 ± 0.35 |
| AAGGAGCAAUAUUACGGUGA | -2.44 ± 0.21 | -1.09 ± 0.2 |
| ACUCAGCAAUAUUACGCGGG | -2.91 ± 0.15 | -2.68 ± 0.18 |

| Sequence | self-splicing fitness (ln) (30 °C) | self-splicing fitness (ln) (37 °C) |
| --- | --- | --- |
| GCCGAGCAAUAUUACGGAGU | -2.42 ± 0.18 | -1.56 ± 0.12 |
| CACUAGCAAUAUUACGCGCA | -2.52 ± 0.16 | -1.85 ± 0.2 |
| CGCGAGCAAUAUUACGUACA | – | -2.71 ± 0.43 |
| GUUUAGCAAUAUUACGGCAG | -2.12 ± 0.26 | -1.66 ± 0.38 |
| GCUUAGCAAUAUUACGUUGC | -2.46 ± 0.15 | -0.535 ± 0.12 |
| AGGCAGCAAUAUUACGGUUC | -1.43 ± 0.14 | -1.8 ± 0.19 |
| CGUUAGCAAUAUUACGCGAC | -3.76 ± 0.26 | -1.84 ± 0.17 |
| CAUAAGCAAUAUUACGCUCU | -2.58 ± 0.19 | -1.3 ± 0.12 |
| GGUAAGCAAUAUUACGAUCU | -0.636 ± 0.1 | 1.04 ± 0.13 |
| UGGCAGCAAUAUUACGUCCU | -0.363 ± 0.11 | 0.0307 ± 0.15 |
| ACUCAGCAAUAUUACGCAGU | -3.55 ± 0.16 | -2.28 ± 0.17 |
| UUGAAGCAAUAUUACGGCGU | -0.215 ± 0.11 | 0.00688 ± 0.13 |
| ACACAGCAAUAUUACGUCUA | -1.27 ± 0.072 | -0.282 ± 0.072 |
| GACAAGCAAUAUUACGCAAA | -2.04 ± 0.13 | -1.81 ± 0.12 |
| AUUUAGCAAUAUUACGGGUG | -3.24 ± 0.14 | -1.57 ± 0.14 |
| ACAAAGCAAUAUUACGGGAU | -1.19 ± 0.058 | -0.492 ± 0.076 |
| CCCUAGCAAUAUUACGGUCU | -3.61 ± 0.21 | -1.72 ± 0.17 |
| GAGCAGCAAUAUUACGUAAC | -1.36 ± 0.11 | -1.13 ± 0.18 |
| GAGUAGCAAUAUUACGGUGG | -3.37 ± 0.26 | -2.15 ± 0.18 |
| GGGUAGCAAUAUUACGAACG | -0.91 ± 0.08 | -0.292 ± 0.1 |
| CUCAAGCAAUAUUACGCCCC | – | -1.28 ± 0.5 |
| GUAAAGCAAUAUUACGGCCC | 0.25 ± 0.16 | 0.443 ± 0.24 |
| ACACAGCAAUAUUACGUCCU | -0.17 ± 0.055 | 0.432 ± 0.075 |
| UAUCAGCAAUAUUACGAUGA | -0.667 ± 0.075 | 0.19 ± 0.099 |
